This passage reports Kd results from paper PMC8217500, “Sequence signatures of two public antibody clonotypes that bind SARS-CoV-2 receptor binding domain” (Nature Communications, 2021).

Holding throughout (conditions): both partners purified
In assay [1] the target is T1, Fc-tagged SARS-CoV-2 receptor-binding domain (RBD), wild type (SARS-CoV-2, Wuhan-Hu-1 (QHD43416.1), UniProt P0DTC2).
T1 construct: also called SARS-CoV-2 RBD; WT RBD; not shown: Fc, C-terminal, kept
Kind of assay: BLI; Fc-tagged RBD (20 ug/ml) loaded on anti-hIgG Fc Capture (AHC) biosensors, Fab in solution at four to five concentrations; Octet Red96e, room temperature, 1x kinetics buffer (1x PBS pH 7.4, 0.01% w/v BSA, 0.002% v/v Tween 20); 1:1 binding model.

Assay [2] has as its target T2, Fc-tagged SARS-CoV-2 spike receptor-binding domain (RBD) (SARS-CoV-2, Wuhan-Hu-1 (QHD43416.1), UniProt P0DTC2).
T2 construct: also called SARS-CoV-2 RBD; Fc-tagged RBD; source: Expi293F, transiently transfected, purified (KanCapA protein A resin); not shown: Fc (after an SSSSG linker), C-terminal, kept
Briefly: BLI; Fc-tagged RBD (20 ug/ml) loaded on anti-hIgG Fc Capture (AHC) biosensors, Fab in solution; room temperature; 1x PBS pH 7.4, 0.01% BSA, 0.002% Tween 20; 1:1 binding model. (In general: BLI is a label-free optical method that tracks binding on a fibre tip over time.)

The next assay concerns the target T3, Fc-tagged SARS-CoV-2 RBD (SARS-CoV-2, Wuhan-Hu-1 (QHD43416.1), UniProt P0DTC2).
T3 construct: also called SARS-CoV-2 S RBD-Fc; not shown: Fc, C-terminal, kept
Briefly: BLI; Octet Red96e, room temperature; Fc-tagged RBD (20 μg/ml) loaded on anti-hIgG Fc Capture (AHC) biosensors, Fab in solution; 1× kinetics buffer (1× PBS pH 7.4, 0.01% BSA, 0.002% Tween 20); 60 s association, 60 s dissociation; 1:1 binding model.

B1: COVA2-20 Fab, wild type (Fab, V domains shown)
VH: EVQLVESGGGLIQPGGSLRLSCAASGFTVSSNYMSWVRQAPGKGLEWVSVIYSGGSTYYADSVKGRFTISRDNSKNTLYLQMNSLRAEDTAVYYCASPLLLTPPDYYYYMDVWGKGTMVTVSS
VL: DVVMTQSPSSLSVSVGDRVTITCRASQGIRNDLGWYQQKPGKAPKRLIYAASSLQSGVPSRFSGSGSGTEFTLTISSLQPEDFATYYCLQHNSYLWTFGQGTKLEIK
B1: in assay [1], the Kd (as a rule, a measure of binding affinity in units of concentration) was found to be 304 ± 20 nM.

B2: COVA2-20 Fab, Y58 (wild type) (Fab, V domains shown)
VH: EVQLVESGGGLIQPGGSLRLSCAASGFTVSSNYMSWVRQAPGKGLEWVSVIYSGGSTYYADSVKGRFTISRDNSKNTLYLQMNSLRAEDTAVYYCASPLLLTPPDYYYYMDVWGKGTMVTVSS
VL: DVVMTQSPSSLSVSVGDRVTITCRASQGIRNDLGWYQQKPGKAPKRLIYAASSLQSGVPSRFSGSGSGTEFTLTISSLQPEDFATYYCLQHNSYLWTFGQGTKLEIK
B2 registered a Kd in assay [2] of 304 nM.

B3: COV107-23 Fab (Fab, V domains shown)
VH: EVQLVESGGGLIQPGGSLRLSCAASGFTVSSNYMSWVRQAPGKGLEWVSVIYSGGSTFYADSVKGRFTISRDNSKNTLYLQMNSLRAEDTAVYYCARDLGTGLFDYWGQGTLVTVSS
VL: DIQLTQSPSFLSASVGDRVTITCRASQGISSYLAWYQQKPGKAPKLLIYAASTLQSGVPSRFSGSGSGTEFTLTISSLQPEDFATYYCQQLDSYPPGTFGPGTKVDIK
notes: also called wild-type (WT) COV107-23; source: Expi293F, transiently co-transfected, purified (CaptureSelect CH1-XL column)
Consider B3, for which, in the assay with Fc-tagged SARS-CoV-2 RBD, the Kd is 1 nM.
